Test results reported in patent US20110217317A1 (published 2011).

Target: T1, Rhesus D antigen (human, UniProt Q02161 2-417)
T1 construct: whole, on cells; Presented on RhD-positive erythrocytes in all assays; also called RhD; RhD antigen
T1 sequence (looked up): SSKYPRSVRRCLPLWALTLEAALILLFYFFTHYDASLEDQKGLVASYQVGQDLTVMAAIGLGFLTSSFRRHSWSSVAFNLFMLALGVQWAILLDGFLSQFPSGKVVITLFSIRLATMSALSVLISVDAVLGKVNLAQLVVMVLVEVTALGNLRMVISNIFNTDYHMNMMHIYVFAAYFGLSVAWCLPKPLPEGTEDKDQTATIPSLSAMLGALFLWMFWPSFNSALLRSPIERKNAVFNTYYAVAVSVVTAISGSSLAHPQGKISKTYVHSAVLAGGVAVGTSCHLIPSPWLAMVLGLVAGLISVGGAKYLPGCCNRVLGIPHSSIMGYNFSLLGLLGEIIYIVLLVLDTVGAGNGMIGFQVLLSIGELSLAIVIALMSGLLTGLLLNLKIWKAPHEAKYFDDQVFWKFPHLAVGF
Experiment: Fab screening on red blood cells (agglutination/FACS)

binding result: binds
B1: RhD189.181E07 (Fab, V domains shown)
VH: QVQLVESGGGVVQPGRSLRLSCAASGFTFSSYGMHWVRQAPGKGLEWVAVIWYDGSNKYYADSVKGRFTISRDNSKNTLYLQMNSLRAEDTAVYYCARDMVTMVRGAYRNYYYYGMDVWGKGTTVTVSS
VL: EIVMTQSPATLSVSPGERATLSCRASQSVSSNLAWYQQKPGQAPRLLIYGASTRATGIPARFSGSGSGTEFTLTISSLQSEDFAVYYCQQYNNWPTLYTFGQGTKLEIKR
notes: Tested as Fab (periplasmic extract)
